# Reference: the DeepSol protein solubility set
# Experiment: soluble on expression in E. coli; label from the status in PepcDB or PDB records
row,Sequence,soluble on expression in E. coli
1,MAHHHHHHMKTLKEALTNVLSSLNIAEKKEILNVLYHILQKIIENPSRAKFRSLKKDNKTFVNKLLQFKESDELLRSLGFEEETEIWFFPVKNDHKLSSNLTEIRAFIKEHVNTIYNNQDSIFETGTASSSAHLPTDEKNVTENTSNLGDTCNNSEGLTLGGLSKRRLEKERLELLSQKENTIKLLQEHADKWIIQITGAENTLYSNETFQMQFKFTEKYPIESPEVIFLGQPPIHPHIYSNGHICLSILYDHWSPVLSVNSICLSIISMLSSCKKKRKPLDDILYCSTGPRISPKNMKWMFHDDKV,not soluble
2,MAHHHHHHMLRARTLLLFMRPEAAAAELRRLLPLLSFAGRRTGAATHSVASLIVSTAYSATAARSVTNHSRDCPVLSKKLPLPLIGKESSFAARPCLNCVRERVHYVSSLSFCDYFEKKCAEAQHYRNGASSNGVVGTAALPKLLLEAIERSYGSVAAFKDSVMLHSTGAMSPGRLWIVYTPPISGSEHGAVRLLNLPACKVPLVHGLWPLAVINMTEKRLCEQIACRSGKGGDAVDADDAPAWRHAARTRKTLGALATTEEGNDRAGNVAQVKLSSIQSAIAEEALCAMNWKFVETQLTSALAYYSSKERTQTQREHRKEKEHVAAVRAMSQLKNSGAVIHATDSVTITSSNSFVASSASEPNLSAAAAVTSSSAKAENSALGEANTQTAAVAAPSAEATAANTASNSAQPADNTATGAAAAEPRAVQQADGTWEYHYNNGSVTKALPDGTKVFQTESLTTTVFVNGDTLFEYPNNTSILDRADGVRVITYADGTKKEERLK,soluble
3,MAHHHHHHMLRLLPLRLASKVTAGNAKNQAGHPRRKAKLFHVIPGTPVTPMEKLKEQRRRYGQDRHSRLPEYRPGKNVRLDPNTFTLYATTKGVMTIRESRINPKYKWLEVEPDIQKVYRSSQMRRALAARGMTSQMVEKNEHYRSEMDLLLEPHWRQRVMRVPKATERFKDPNLFVRGVITELTPMDRYCYE,not soluble
4,MAHHHHHHMLRLSFVHRKSRHQNVLRRGRPHMQKYRELNRWQRQAQGISKWDQSQSHRPLPYVERFNPEGVGVTRGTSAFAWQWWHTQQPWLPNVAPPNHTGRKITNTSGTTEETAKPPAWDEEFTSVVLSMTDSEIREYLLDKLTDVIFAETQRDGYELRRLDFEGNPLTELPERRIIESFVFEEETLRERVIYQVVEGVFRLSPTSADRRELRSVETIIDYVLTHVSAARPDSRPRVTPAALAVMQQCPLQPELGFVHALPVDSRDEILQEWERMHHLDWQFGKAVYVPRSREETRGNLTWLREERHNAERVEFMKRVASGEAKAEHMRRIAEAACTERPETMHG,not soluble
5,MAHHHHHHMLRRVLSRGPLPQSLSVGPTSKLTVNKGKLAKSRGVHVHFLTIAECAAAAGDASAPIPPGFTGKAGEVDFQTLWTTAQDPATAESVLRKSGRKAAGARRAAEKPAELVAGMGAHSTVRDYRLAVTAAVRKAKMCNAAWVSLHPPKQDVFTMTDPYHPPQRLKSHEMVEKTAIFAVTGAYQYDRLKSGTLASKDSAQTGRTRARRAESRAKPPAAPQPPMELVVASSNAQAVRAGEVIGHCVNEARNLGNLREDEGVPEFYAEWAKKYMIPEGIKVRKVLRGQQLEEAGLHLMYNVGRGSRYEPYLVVLEYIGNPRSSATTAIVGKGVTFDCGGLNIKPYTSMETMHSDMMGAATAFCTLKAIAKLQLPINVVAAVGLVENAIGPESYHPSSIITSLKGLTVEVLNTDAEGRLVLADVLTYVQKYAPLDKKPTRIIDLATLTGAIIVGLGSRRAGLFSPSAMLANSLMAAGTQCGEELWPMPIGDEHKDMMKGGIADLINAAPGRQAGSCTAAAFLSNFVEPEVQWAHLDIAGVADVGDKPKGYEPAGVTGFGVQLLVDFLRHNKP,not soluble
6,MAHHHHHHMNDCISTDKVDLDKKQIKKFLKQINISQLTKMIQFIDNKLLSDWDFNCLTYFDESEYPFFDINLSLICTIDHNIPINIIINFLCFVEKQYNNVPYHNTIHATMVTQKFFCLAKKLGIYDDLEYKIKLVMFISGICHDIGHPGYNNLFFVNSLHPLSIIYNDISVLENYHASITFKILQLNQCNILKNFSEKDFRMMRSYIIELILSTDMKHHFEIISKFRIRRENEDFDYIKNSDDLLILTKMIIKSADISHGSVSWSEHYCWCQRVLSEFYTQGDEELKNKMPLSPLCDRTKHNEVCKSQITFLKFVVMPLFEELSHIDNNKFIKSFCLKRLNSNCIMWDTLMKEEKTIEVYDPAAVKLKDKKKKKVDKKKKSYIDLTLFFIKNV,not soluble
7,MAHHHHHHMNDERVLFLTSSTCITICENQIGIDVLLKTDILHNAVILCESANPDLAFEALSIISKIAYAANHQQICILISCNVIKALKKILNNMKIKPGARARACNALGNIGCETASEVELLIKNDVFPLLVDIFQTDNDFNTKIEAAYAVCACLSKANQKQVGYIISCTATTNRLGQNICMQLIADMLELVSESDPMNNGSVKLCKSILRGLENILDKGDDETRDLSLWENPYVFMFKEVQGDIKLFQMQFFPEYYVVNKTYDILAKYFSLTSTWNNRK,not soluble
8,MAHHHHHHMNKVVIISIFFFFFFQDHNNKSINSYNKINSSSTYTHSRILKQLEFITLEEKTVNALQEMLDSVEEDPSEKKCNRLLAKLKIRNEYHKHRKPHNYYARKNKKKEQKRQHLKKNKGKLNRLQQLEEKLFTHADLLRSAIFERTSRVPDGIFYT,not soluble
9,MAHHHHHHMNREQIARRIDLVGPSTGAIVGVATWCALHGAEADAILNYVAEKMKHKDTTDAQRASLVYVIHELLLSCATRGVSENAKRSILKAVSLTLPSAVRDTLRQRASDHTAFLIALQKATEWWGTLNLFPAAWLAKLQCTVQDGQESAGHRTTVPSALMQVANLLQRYQHAKEQWVQNRNIKAEEGRTGSGVASGQDTAAPLAGGGAGASSAVVDDAARRCLIALRKAVESRFERNAAFLAWCEAERAELEGRATTSSADSGVVKMAHGTSPHVPTHSGSGSSYSVKEEGGHSGGPSGEPNDDEDVLGSFFS,soluble
10,MAHHHHHHMNRHNKFYAEVADELEGEDYYDDDDDDYNNDEEYEEEGEYDEAAYETTASAASPEPVHMPKSTTQATAPAAAAVRVNPYTTISPQVDDDYELLDVLLPQLHALWKTNAPTMLPLSEGEAVTALRASNYDVEPAFLQLKEKRDEERSKRGGGVLRVAAAAGPAKRASTPPTVEPPEPGGEAASDNEGNSASPSASSGRTTITLRGWKGASQRRTKQMLEMEPDKEKPDCTFVIAGHVDAGKSTTLGHLLLLLGRVSIQDVERNEKADRTHHKDSFKYAWLLDQCEEERRRGVTIDSGSFCFETEHRRVHILDAPGHKDFVLNMISSATQADAALLVVTATNSEFETGLHHGTKSHLLVLKTLGVGSIVVAVNKMDAVAYSQERYDYVVRELQLLLKQTRIPEEAIIGFCPISGMTGVNITQRGAKETPWYHDLSLIEMIDRCPLESRLVNSPLRLSLQDVQGTTLYAKVESGRLFTGDMVHFVPSEVRVTIKSIQKPTVAGPVLVAFAGETVEISTNSSVTGLYPGCVGCEPNLLIRSSTDFEAHIQTFRTLTKAILPGASFTIIVHALTVRVHVAALISKMDSKTGNWSKGMVKCVPPAAQAMMLFRAESPVALEPATECRALGRFVLQQDGETVAGGLVTRVVDKA,not soluble
11,MAHHHHHHMNVRKSILNYLILHSSIVRRNHNKSYQKECRQSGSLNWMEKNRKMKSVRPNYFVCIPLSGNKGLVEELIKVQNHVASKFEMLKECAIERNKFHISLLILHVKKSQMVASKEAFREAIEEIKKLNHQAISFDTLETFRNDVLYAGLKEDSRKYVVNMIALLRDAFTKRDIHIFSNHKGKEEAREKTRPSGAIDKGIGNRTDKGAAVPSTYQCSEKEQITPHVTIMKNSYLRKIYANRKPQIFADYYADFNLSKLQTERVVPNKIQFLEMDTDSATSYYRVIDECGLP,not soluble
12,MAHHHHHHMPCRKIIIDTDCGGDDAIGIMTALADPNTDVIAMTAVWGNVNVNQGMENIGKLLDVFERDIPFYKGAEAPLVSDPETVQWGGFGKDGFGDADFPPSARVLVQSKTHAALAITELLRAAKPDEDAVYQLVCLGPLTNIALAMRLDPEVFHVLGSETEPAITIMGGASEAKGNSNLTSEFNMHCDPEAAYIVFNQRSMRPVRVVSWEVTVDCSMTWTFFDKWIGRQENGKKQQNRFQVFIEKVFQRLETFTRPLPDGTKANTGDAEATQDNTCVIPDAVAVVAALYPESILDRFITYCTVELHGRETRGQTCLDWYGTKQSMAKRGRWCNCELITRVDNARFLEAMNGILEYNV,not soluble
13,MAHHHHHHMPENDEHVVVQACSVRVALPASTQPCGVEDAVQHCLHAARAIVQINLVRGTPRVALQLLACRTDACGEQHTASQVLDESPRRLQYALLLRGFEQRGGPVNRLDHTSLACAMCVPNYFSPHHFGAAAVPFFRTYHVTEALAKRRYADAAVMMACLEVETVAEASTEVPPWLARALQLLCRGEDREGVWQAWWIHEVPAATQRRMVCAKSDLVWNVVASHRLQELVAATGGCRDVLLAAAPKPGDFVFQLEEAEDSGATSAALAPVALSAPVTAVYSQAQAARYSVHDIALPLVLDASSEFEGCESLAVIEAQLGFTHDRRRHLSLHPSQRPCQSHTSLPAVAQTNETVFRPLLVEATGYPRATRPWCRSFPEPSVGPAFDRPKAALESNATVFALATDWDLASQTAVARDYAAKSRGPRACVWPLSKRGRALTDRLPAGLMTVASADGSSLLGGASTTNYHGSRCLAIHCTLPARVSLANFVSELAAVEDLRDSQA,not soluble
14,MAHHHHHHMPETTHVTNDAAVPQKHIVEKPHLMDLFRSSASFAKIIAYLQGCSDSVNGTPRSARMVQKASELHPTVRFFVETFFPHLHKIVEEVPLQDMKKQRFGNRAFRVFHERLEADVGGLMQQLVLTLPARSGERSEEEQRCLAVELAEYIKDSFGNSTRIDYGTGHELHFFVVIMICLEECGDAGGTLQAEPTTIVSLNFPQPAPVLVDKRDRVCRLRQGMVFDVFGAYLTFMRRLQKHYHLEPAGSHGVWGLDDYHHLPFIFGAAQLIGKEVPHKTDDSGNGKGYGAILPKHVCEENAVRLHADEYFYFAQVAWVRENKTGPFFEHSSMLYNISGVESWQKIYTGMVKMYAAEVLSKFNVVQHLLFGTHLPWPPDV,soluble
15,MAHHHHHHMPIIESDLLSLAYKAALSALLSEEIYNFGKFLNERHFTERLADSVQHAWILEWLRLCNDGKVEEFEQYAVAHKAEMAASPILSESFPSITKKVRLMALLHLVFYTPFNERTFTFDVIARRCAVDEERVEPLLLAALAQGIIMGKIDGLTQEVHITWVEPRVLSLQEVKELAVHVSRWKEKTLGLMQCMKEAAQETHN,not soluble
16,MAHHHHHHMPKSSPPDEHKVLIKKLTHACASYDSASRKYLTAVKALDSSLEAVAIAIRELSQGEESEDAVTRVDRFCTSVDRHMAGSSAGASFGHNKSGRLSDSAAFNGAEYPFAAYMSDFTREVSSAVDELKEILKKIEKSRSKHDDLVAKYNKKRSEVDTMEMKLAKKNQGIATNEKYSHKLSDRDALKVQVDTGERELRAEFMELLQRRTRILLQVVHGMQTHSSKYYSHLSKAMQA,soluble
17,MAHHHHHHMPPLHSRATRQLVKERSKIEGPRSLHRGIHYQENEAHASSYMQNAKKKRADHRDLLVHHQRINEDLQDIYTRTAALHSDNMTMEERIEESWKKYERIGGKRPANVRTHGQDAVLCANQTAVPYAERLAQVSQQKKELRERGAWERLTHGEAVDYSKGSALHAAKDKRVQMFQRRQLRRAHLLRRVGDPTPLKQSGTYDMNSGTLRVFNKTIRNVQREVAHDARIAEVRKRRKNSRSQWDLNESGNVNRPDQEILRYSRDWELGPQRKARGGGGGGGRGGRKRGRDEL,not soluble
